The values that follow are results of earlier work, collected in PMC4871753.

The term Kd denotes the free concentration of one partner at which half of the binding sites on the other are occupied at equilibrium, for simple one-to-one binding.

The target in the series is RXFP1 (Homo sapiens) (UniProt Q9HBX9).
Chain of UniProt Q9HBX9 (Q9HBX9 whole entry): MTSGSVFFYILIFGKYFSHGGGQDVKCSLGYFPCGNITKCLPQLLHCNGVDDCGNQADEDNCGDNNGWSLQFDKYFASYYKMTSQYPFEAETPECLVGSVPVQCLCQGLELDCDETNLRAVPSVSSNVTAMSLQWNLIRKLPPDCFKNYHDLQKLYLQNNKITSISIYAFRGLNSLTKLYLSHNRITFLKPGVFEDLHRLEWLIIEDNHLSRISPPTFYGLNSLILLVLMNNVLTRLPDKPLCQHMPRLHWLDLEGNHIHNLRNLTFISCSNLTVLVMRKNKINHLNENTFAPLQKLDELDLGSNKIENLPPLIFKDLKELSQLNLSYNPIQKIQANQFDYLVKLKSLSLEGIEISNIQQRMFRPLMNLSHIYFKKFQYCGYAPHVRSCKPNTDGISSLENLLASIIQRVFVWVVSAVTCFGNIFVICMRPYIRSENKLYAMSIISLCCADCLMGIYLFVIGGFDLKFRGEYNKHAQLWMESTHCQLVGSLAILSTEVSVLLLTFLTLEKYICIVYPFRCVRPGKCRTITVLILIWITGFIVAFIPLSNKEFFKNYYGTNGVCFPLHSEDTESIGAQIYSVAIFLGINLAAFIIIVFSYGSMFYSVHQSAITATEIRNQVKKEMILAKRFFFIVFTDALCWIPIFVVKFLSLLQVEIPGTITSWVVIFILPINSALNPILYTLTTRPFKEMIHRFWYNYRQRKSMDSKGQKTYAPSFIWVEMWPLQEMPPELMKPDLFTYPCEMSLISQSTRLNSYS

Consider “NLuc-conjugated relaxin (from UniProt P04090)”, for which the Kd was 1.11 nM.
